The results in this text go back to publication PMC6092330.

For the assay, the target named is acid-purified histones (human (endogenous in TE-7)).

B1: recombinant GST-tagged full-length IL-33 (H00090865-P01, Abnova) (natural protein)
chain: MKPKMKYSTNKISTAKWKNTASKALCFKLGKSQQKAKEVCPMYFMKLRSGLMIKKEACYFRRETTKRPSLKTGRKHKRHLVLAACQQQSTVECFAFGISGVQKYTRALHDSSITGISPITEYLASLSTYNDQSITFALEDESYEIYVEDLKKDEKKDKVLLSYYESQHPSNESGDGVDGKMLMVTLSPTKDFWLHANNKEHSVELHKCEKPLPDQAFFVLHNMHSNCVSFECKTDPGVFIGVKDNHLALIKVDSSENLCTENILFKLSET
Take B1: the CCL2 secretion by HMC-1 mast cells (42-cytokine multiplex array), fold change against untreated, 23.4 nM recombinant WT IL-33 without and with 6.7 µg/mL acid-purified histones is 822 fold.
